Target: T1, NLRP3 (NLR family, pyrin domain containing 3), endogenous (human (endogenous in THP-1), UniProt Q96P20 1-1036)
T1 construct: NLRP3, endogenous in PMA-differentiated, LPS-primed THP-1 cells; also called NLPR3; source: endogenous, lysate or cytosolic fraction of LPS-primed THP-1 macrophage cells
Test: co-IP; NLRP3 immunoprecipitated from lysates of LPS-primed THP-1 macrophage cells, stimulated with ATP (5 mM, 1 h) or not; immunoblot for cytochrome c; lysis buffer 20 mM HEPES pH 7.4, 0.5% Triton X-100, 0.5% CHAPS, 10% glycerol; 4°C
Settings: partners not purified

T1 sequence (Q96P20 whole entry, the tested form may be a part): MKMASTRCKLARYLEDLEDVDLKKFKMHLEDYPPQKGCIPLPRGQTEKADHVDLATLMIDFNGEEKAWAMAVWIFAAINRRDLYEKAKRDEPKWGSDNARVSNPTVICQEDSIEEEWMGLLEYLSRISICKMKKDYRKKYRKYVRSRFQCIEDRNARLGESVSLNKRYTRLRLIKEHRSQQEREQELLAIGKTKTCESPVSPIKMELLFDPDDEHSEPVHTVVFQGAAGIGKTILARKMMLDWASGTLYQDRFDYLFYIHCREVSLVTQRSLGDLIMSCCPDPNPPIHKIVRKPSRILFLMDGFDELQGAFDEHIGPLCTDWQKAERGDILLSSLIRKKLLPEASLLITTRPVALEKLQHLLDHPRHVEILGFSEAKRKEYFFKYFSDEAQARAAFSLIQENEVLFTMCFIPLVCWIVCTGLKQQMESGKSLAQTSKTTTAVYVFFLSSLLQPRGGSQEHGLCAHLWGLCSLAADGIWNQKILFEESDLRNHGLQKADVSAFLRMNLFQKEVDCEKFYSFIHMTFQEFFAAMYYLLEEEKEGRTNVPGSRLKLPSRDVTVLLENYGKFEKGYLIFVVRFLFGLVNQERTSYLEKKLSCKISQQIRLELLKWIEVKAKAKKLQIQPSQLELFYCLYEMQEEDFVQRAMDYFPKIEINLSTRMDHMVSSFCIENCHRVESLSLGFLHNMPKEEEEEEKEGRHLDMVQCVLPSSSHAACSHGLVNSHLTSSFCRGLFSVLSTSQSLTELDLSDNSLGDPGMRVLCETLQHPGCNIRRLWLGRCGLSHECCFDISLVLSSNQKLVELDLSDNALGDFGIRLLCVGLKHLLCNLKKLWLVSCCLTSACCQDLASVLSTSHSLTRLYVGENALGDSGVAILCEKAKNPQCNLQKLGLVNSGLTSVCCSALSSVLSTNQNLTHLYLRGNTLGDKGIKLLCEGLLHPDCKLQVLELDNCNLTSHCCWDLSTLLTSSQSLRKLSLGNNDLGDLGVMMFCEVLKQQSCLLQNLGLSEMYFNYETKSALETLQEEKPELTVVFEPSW

B1: cytochrome c, endogenous (natural protein)
chain: not shown
notes: cytochrome c, endogenous in PMA-differentiated, LPS-primed THP-1 cells; source: endogenous, lysate or cytosolic fraction of LPS-primed THP-1 macrophage cells
In the case of B1, the “fold more cytochrome c co-precipitated with NLRP3 after ATP against no ATP” value is reported as roughly 3 fold.
